Laboratory results taken from the supplement of paper PMC9112550, “Optimization of the antimicrobial peptide Bac7 by deep mutational scanning” (BMC Biology, 2022).

Test system: Escherichia coli TOP10
Assay: shrunken log2 fold change of peptide-encoding DNA abundance (4.5 h post-induction vs induction); higher = less antimicrobial activity (less host growth inhibition)
Details: time post-induction: 4.5 h; library: site-saturation at positions 5, 18, 19, 20
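Further: peptides expressed intracellularly from a pBAD plasmid library in pooled LB shake-flask culture, induced with 0.3% L-arabinose, DNA abundance read by NGS, three biological replicates, DESeq2 with apeglm shrinkage.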

Row | Sequence | shrunken log2 fold change
1 | RRIRCRPPRLPRPRPRPSEIPRP | -0.321
2 | RRIRMRPPRLPRPRPRPFICPRP | 0.0468
3 | RRIRFRPPRLPRPRPRPNIGPRP | -0.0107
4 | RRIRDRPPRLPRPRPRPRDKPRP | -0.0712
5 | RRIRPRPPRLPRPRPRPKLLPRP | -0.0549
6 | RRIRARPPRLPRPRPRPWVDPRP | -0.0331
7 | RRIRRRPPRLPRPRPRPLFQPRP | 0.246
8 | RRIRCRPPRLPRPRPRPYYAPRP | -1.1
9 | RRIRCRPPRLPRPRPRPSKLPRP | -0.674
10 | RRIRVRPPRLPRPRPRPQWAPRP | -0.0201
11 | RRIRVRPPRLPRPRPRPRSNPRP | 0.125
12 | RRIRSRPPRLPRPRPRPDLCPRP | -0.159
13 | RRIRDRPPRLPRPRPRPTKLPRP | 0.0975
14 | RRIRCRPPRLPRPRPRPLFRPRP | -0.283
15 | RRIRWRPPRLPRPRPRPDFEPRP | 0.385
16 | RRIRDRPPRLPRPRPRPHHKPRP | -0.397
17 | RRIRPRPPRLPRPRPRPKFKPRP | 0.0351
18 | RRIRTRPPRLPRPRPRPPMKPRP | -0.112
19 | RRIRQRPPRLPRPRPRPMPVPRP | -0.00339
20 | RRIRFRPPRLPRPRPRPVMKPRP | -0.189
21 | RRIRMRPPRLPRPRPRPFTNPRP | 3.34
22 | RRIRYRPPRLPRPRPRPENNPRP | -0.572
23 | RRIRPRPPRLPRPRPRPAHEPRP | 0.356
24 | RRIRNRPPRLPRPRPRPQMEPRP | -0.191
25 | RRIRARPPRLPRPRPRPKLLPRP | 0.00678

Row | Sequence | shrunken log2 fold change
26 | RRIRYRPPRLPRPRPRPCYKPRP | -0.0156
27 | RRIRARPPRLPRPRPRPFYKPRP | -0.009
28 | RRIRSRPPRLPRPRPRPWRKPRP | 0.0156
29 | RRIRPRPPRLPRPRPRPTYGPRP | -0.171
30 | RRIRKRPPRLPRPRPRPYRFPRP | -0.244
31 | RRIRHRPPRLPRPRPRPMYRPRP | -0.0948
32 | RRIRNRPPRLPRPRPRPVGDPRP | 0.0156
33 | RRIRARPPRLPRPRPRPVVFPRP | 0.213
34 | RRIRWRPPRLPRPRPRPAQFPRP | 0.248
35 | RRIRFRPPRLPRPRPRPAMHPRP | 0.234
36 | RRIRCRPPRLPRPRPRPANTPRP | -0.265
37 | RRIRHRPPRLPRPRPRPLQTPRP | 0.139
38 | RRIRKRPPRLPRPRPRPCPQPRP | 0.242
39 | RRIRIRPPRLPRPRPRPPTYPRP | -0.427
40 | RRIRLRPPRLPRPRPRPCNNPRP | -0.0778
41 | RRIRARPPRLPRPRPRPQMDPRP | 0.099
42 | RRIRPRPPRLPRPRPRPNSLPRP | -0.272
43 | RRIRNRPPRLPRPRPRPAKVPRP | -0.0027
44 | RRIRPRPPRLPRPRPRPGSRPRP | 0.144
45 | RRIRHRPPRLPRPRPRPTSAPRP | 0.0939
46 | RRIRDRPPRLPRPRPRPICTPRP | 0.198
47 | RRIRCRPPRLPRPRPRPLELPRP | 0.172
48 | RRIRNRPPRLPRPRPRPRVYPRP | -0.0128
49 | RRIRHRPPRLPRPRPRPYHHPRP | -0.607
50 | RRIRDRPPRLPRPRPRPNHIPRP | -1

Row | Sequence | shrunken log2 fold change
51 | RRIRTRPPRLPRPRPRPTNQPRP | -0.067
52 | RRIRDRPPRLPRPRPRPPMKPRP | 0.131
53 | RRIRMRPPRLPRPRPRPTWIPRP | 0.0438
54 | RRIRFRPPRLPRPRPRPKWHPRP | -0.0786
55 | RRIRVRPPRLPRPRPRPQRLPRP | 0.275
56 | RRIRVRPPRLPRPRPRPPKVPRP | 0.392
57 | RRIRFRPPRLPRPRPRPFSKPRP | 0.033
58 | RRIRRRPPRLPRPRPRPGHSPRP | -0.0814
59 | RRIRARPPRLPRPRPRPYKHPRP | -0.881
60 | RRIRMRPPRLPRPRPRPPVKPRP | 0.512
61 | RRIRERPPRLPRPRPRPMEEPRP | 0.161
62 | RRIRYRPPRLPRPRPRPAAVPRP | 0.0751
63 | RRIRFRPPRLPRPRPRPGKLPRP | -0.0682
64 | RRIRERPPRLPRPRPRPHDMPRP | -0.0911
65 | RRIRNRPPRLPRPRPRPQEYPRP | -0.578
66 | RRIRRRPPRLPRPRPRPTQAPRP | -0.0717
67 | RRIRVRPPRLPRPRPRPSDYPRP | -0.673
68 | RRIRQRPPRLPRPRPRPDAYPRP | -0.228
69 | RRIRTRPPRLPRPRPRPGQPPRP | 0.161
70 | RRIRFRPPRLPRPRPRPCKSPRP | -0.0582
71 | RRIRTRPPRLPRPRPRPMHMPRP | -0.202
72 | RRIRARPPRLPRPRPRPATLPRP | 0.34
73 | RRIRFRPPRLPRPRPRPTMVPRP | -0.129
74 | RRIRDRPPRLPRPRPRPQDVPRP | -0.254
75 | RRIRVRPPRLPRPRPRPYEKPRP | -0.293

Row | Sequence | shrunken log2 fold change
76 | RRIRVRPPRLPRPRPRPAICPRP | -0.0408
77 | RRIRERPPRLPRPRPRPYCSPRP | -0.57
78 | RRIRWRPPRLPRPRPRPECTPRP | 0.255
79 | RRIRNRPPRLPRPRPRPQNMPRP | -0.233
80 | RRIRPRPPRLPRPRPRPDVSPRP | 0.0525
81 | RRIRRRPPRLPRPRPRPPRYPRP | 0.978
82 | RRIRDRPPRLPRPRPRPVSYPRP | -0.0715
83 | RRIRIRPPRLPRPRPRPYEFPRP | 0.00826
84 | RRIRGRPPRLPRPRPRPQIHPRP | 0.32
85 | RRIRHRPPRLPRPRPRPHQMPRP | -0.0152
86 | RRIRRRPPRLPRPRPRPPISPRP | 0.0255
87 | RRIRSRPPRLPRPRPRPPKIPRP | -0.0117
88 | RRIRIRPPRLPRPRPRPCAIPRP | 0.137
89 | RRIRWRPPRLPRPRPRPAPNPRP | 3.12
90 | RRIRWRPPRLPRPRPRPYVSPRP | -0.0404
91 | RRIRHRPPRLPRPRPRPVYRPRP | -0.305
92 | RRIRVRPPRLPRPRPRPLFEPRP | 0.109
93 | RRIRMRPPRLPRPRPRPVDRPRP | 0.278
94 | RRIRIRPPRLPRPRPRPQSQPRP | -0.513
95 | RRIRWRPPRLPRPRPRPSVIPRP | -0.272
96 | RRIRNRPPRLPRPRPRPLHSPRP | -0.16
97 | RRIRRRPPRLPRPRPRPVGQPRP | 0.0153
98 | RRIRWRPPRLPRPRPRPYAHPRP | -0.056
99 | RRIRARPPRLPRPRPRPVWCPRP | 0.293
100 | RRIRTRPPRLPRPRPRPQVRPRP | 0.0794

Row | Sequence | shrunken log2 fold change
101 | RRIRTRPPRLPRPRPRPNGGPRP | 0.033
102 | RRIRERPPRLPRPRPRPAESPRP | -0.049
103 | RRIRDRPPRLPRPRPRPVHKPRP | -0.233
104 | RRIRNRPPRLPRPRPRPWDVPRP | -0.0115
105 | RRIRSRPPRLPRPRPRPYKCPRP | -0.137
106 | RRIRNRPPRLPRPRPRPPWRPRP | 0.437
107 | RRIRVRPPRLPRPRPRPVLMPRP | 0.107
108 | RRIRMRPPRLPRPRPRPYFAPRP | -0.296
109 | RRIRERPPRLPRPRPRPCMMPRP | -0.058
110 | RRIRPRPPRLPRPRPRPVFSPRP | -0.00413
111 | RRIRCRPPRLPRPRPRPEPTPRP | 0.628
112 | RRIRNRPPRLPRPRPRPDAHPRP | 0.0677
113 | RRIRNRPPRLPRPRPRPYQSPRP | -0.00256
114 | RRIRKRPPRLPRPRPRPNERPRP | -0.0286
115 | RRIRTRPPRLPRPRPRPADDPRP | 0.165
116 | RRIRIRPPRLPRPRPRPMYKPRP | -1.13
117 | RRIRFRPPRLPRPRPRPVMSPRP | -0.153
118 | RRIRIRPPRLPRPRPRPRCSPRP | -0.137
119 | RRIRHRPPRLPRPRPRPRVLPRP | -0.0249
120 | RRIRPRPPRLPRPRPRPCGFPRP | 0.183
121 | RRIRPRPPRLPRPRPRPNWIPRP | -0.441
122 | RRIRERPPRLPRPRPRPLHIPRP | -0.404
123 | RRIRKRPPRLPRPRPRPSPCPRP | 0.13
124 | RRIRDRPPRLPRPRPRPYHYPRP | -0.688
125 | RRIRWRPPRLPRPRPRPFNNPRP | -0.494

Row | Sequence | shrunken log2 fold change
126 | RRIRARPPRLPRPRPRPQGNPRP | -0.144
127 | RRIRSRPPRLPRPRPRPCRTPRP | -0.2
128 | RRIRVRPPRLPRPRPRPMEHPRP | 0.0534
129 | RRIRERPPRLPRPRPRPKQGPRP | -0.0514
130 | RRIRQRPPRLPRPRPRPFPWPRP | -0.0901
131 | RRIRVRPPRLPRPRPRPNRDPRP | -0.0911
132 | RRIRFRPPRLPRPRPRPTMDPRP | -0.246
133 | RRIRNRPPRLPRPRPRPWGMPRP | -0.214
134 | RRIRVRPPRLPRPRPRPGNFPRP | -0.131
135 | RRIRYRPPRLPRPRPRPNRGPRP | -0.124
136 | RRIRQRPPRLPRPRPRPTSKPRP | -0.189
137 | RRIRIRPPRLPRPRPRPKFIPRP | -0.375
138 | RRIRQRPPRLPRPRPRPDYIPRP | -0.0798
139 | RRIRGRPPRLPRPRPRPTNAPRP | 0.923
140 | RRIRGRPPRLPRPRPRPLCSPRP | 0.496
141 | RRIRLRPPRLPRPRPRPKCSPRP | -0.035
142 | RRIRIRPPRLPRPRPRPAYRPRP | -0.611
143 | RRIRARPPRLPRPRPRPHACPRP | 0.066
144 | RRIRVRPPRLPRPRPRPQDHPRP | -0.253
145 | RRIRIRPPRLPRPRPRPCEMPRP | 0.0583
146 | RRIRVRPPRLPRPRPRPAKCPRP | 0.0602
147 | RRIRFRPPRLPRPRPRPDVPPRP | -0.356
148 | RRIRDRPPRLPRPRPRPVLYPRP | -0.166
149 | RRIRMRPPRLPRPRPRPHGWPRP | 0.839
150 | RRIRTRPPRLPRPRPRPYCRPRP | -0.149
